Experimental data taken from publication PMC4573853 (Genes & Development, 2015).
No end group written: not given here.

What was measured:
[1] = target: T1, Taf14 YEATS domain (residues 1-132) (S. cerevisiae, UniProt P35189 1-132); test: NMR titration
T1 sequence (looked up): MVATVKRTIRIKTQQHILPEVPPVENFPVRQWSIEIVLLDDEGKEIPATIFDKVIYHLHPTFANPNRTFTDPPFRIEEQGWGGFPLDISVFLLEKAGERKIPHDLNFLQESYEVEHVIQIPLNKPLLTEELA

Taf14 (residues 1-138) = target: T2, Taf14 (residues 1-138) (S. cerevisiae, UniProt P35189 1-138); test: crystal structure
T2 sequence (looked up): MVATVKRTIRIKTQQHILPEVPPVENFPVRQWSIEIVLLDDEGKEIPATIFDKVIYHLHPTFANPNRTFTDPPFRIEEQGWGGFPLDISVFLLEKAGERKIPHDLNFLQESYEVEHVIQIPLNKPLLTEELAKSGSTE

binding result [1]: binds | binding result (Taf14 (residues 1-138)): binds
Binder: Ac-QTARK(Ac)STGG (peptide, UniProt P68431 6-14, looked up) [H3K9ac(5-13) peptide]
